Data on four molecules can be found in article PMC10127133, “Structural insights into a cooperative switch between one and two FimH bacterial adhesins binding pauci- and high-mannose type N-glycan receptors” (The Journal of Biological Chemistry, 2023).

To fix the notation:
B1: omega-1 (ω1) glycoprotein carrying Man3Gn2 (natural protein)
chain: QNRWDYYVFSVTWPPTYCESIQCRLPRGLRDFTIHGLWPTIFPNRQPNCTGSLRFDIRRLQGIRNELDLMWPHLKNYRESPSFWKHEFEKHGLCAVEDPQVFNQYGYFKFGIKLMQKLNLLKTLMKYKISPHDSRQYDTINLMNVLEREFGYNGSANCIRKPGRRGMYHLEEVHVCLNRKHEFMNCPFLGNCPKKFIFPPFQ
modifications: N-glycans Man3Gn2 (oligomannose-3, paucimannosidic); sites not stated
B2: omega-1 (ω1) glycoprotein carrying X1Man3Gn2F1[3] (natural protein)
chain: B1 chain
modifications: N-glycans X1Man3Gn2F1[3] (oligomannose-3 with β1,2-xylose on mannose 3 and α1,3 core fucose); sites not stated
B3: omega-1 (ω1) glycoprotein carrying Man3Gn2F1[6] (natural protein)
chain: B1 chain
modifications: N-glycans Man3Gn2F1[6] (α1,6 core-fucosylated oligomannose-3); sites not stated
B4: omega-1 (ω1) glycoprotein carrying Man3Gn2F1[3] (natural protein)
chain: B1 chain
modifications: N-glycans Man3Gn2F1[3] (α1,3 core-fucosylated oligomannose-3); sites not stated

T1 sequence (P08191 22-179): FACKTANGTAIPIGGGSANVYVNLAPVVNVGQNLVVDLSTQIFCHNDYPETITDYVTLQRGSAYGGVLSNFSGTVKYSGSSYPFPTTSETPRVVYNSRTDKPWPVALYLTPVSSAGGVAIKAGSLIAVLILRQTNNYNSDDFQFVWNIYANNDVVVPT

This assay concerns the target T1, FimH lectin domain (residues Phe1-Thr158) (Escherichia coli, UniProt P08191 22-179).
T1 construct: FimH type-1 fimbrial adhesin of Escherichia coli, lectin domain, residues Phe1-Thr158; No tag is mentioned; also called FimH adhesin; source: E. coli C43(DE3), pET24a vector, purified (sulfopropyl fast flow cation exchange chromatography)
Description: SPR; single-cycle kinetics on BIAcore T200; ω1-glycoprotein immobilised on a CM5 chip via primary amino groups (EDC/NHS); FimH as analyte at 14.4, 7.17, 3.60, 1.80, 0.9 μM; 20 mM Hepes, 150 mM NaCl, 0.005% Tween; 30 μl/min; 298 K; fit to the Langmuir 1:1 model. The settings on record: both partners purified. (In general: In SPR one partner is held on a chip, and binding of the other changes the refractive index at the surface.)
Turning to B1, binding was put at a Kd of 33.6 nM; the koff – broadly, the rate constant with which the complex falls apart – was found to be 0.00013 s⁻¹; the kon (usually the rate constant with which the complex forms) is 3890 M⁻¹ s⁻¹.

Turning to B2, binding was put at a Kd of 6000 nM, the koff amounted to 0.0015 s⁻¹ and the kon came to 257 M⁻¹ s⁻¹.

Take B3: the Kd (usually the equilibrium constant for the complex coming apart) was found to be 134 nM, the koff was determined as 8.89e-05 s⁻¹ and the kon is 663 M⁻¹ s⁻¹.

In the case of B4, binding was characterised by a dissociation constant (Kd) of 128 nM, the koff is 6.72e-05 s⁻¹ and the kon came to 525 M⁻¹ s⁻¹.
